Square brackets hold non-standard residues; d marks the D form. Ends that are not written are not given here. pGlu = O=C1CC[C@@H](C(=O)O)N1; Nle = CCCC[C@H](N)C(=O)O
B1: metallopeptide 9-5 (peptide)
peptide: [dF]QWACGHLL-NH2
modifications: not fully specified (bridges); printed as D-Phe-Gln-Trp-Ala-Cys-Gly-His-Leu-Leu-NH2; also: Re(V)=O complexed at Cys (N3S1 chelate)
B2: metallopeptide 6-9 (peptide)
peptide: [pGlu]QRLGNCQWAVGHL[Nle]-NH2
modifications: also: Re(V)=O N3S1 chelate at Cys7 (from ReOCl3(PPh3)2)
B3: metallopeptide 7-12 (peptide)
peptide: Ac-AQCLGNQWAVGHL[Nle]-NH2
modifications: also: Re(V)=O N3S1 chelate at Cys3 (from ReOCl3(PPh3)2)
B4: metallopeptide 6-3 (peptide)
peptide: [pGlu]QRLGNQWAVGHCL[Nle]-NH2
modifications: also: Re(V)=O N3S1 chelate at Cys13 (from ReOCl3(PPh3)2)
B5: metallopeptide 7-6 (peptide)
peptide: XQRLGNQWCVGHLX
modifications: Pyr 1; Nle 14; C-terminal amide; Re complexed at Cys 9
B6: metallopeptide 6-13 (peptide)
peptide: Ac-AQCRLGNQWAVGHL[Nle]-NH2
modifications: also: Re(V)=O N3S1 chelate at Cys3 (from ReOCl3(PPh3)2)
B7: metallopeptide 8-1 (peptide)
peptide: [dF]QWAVGHLLC-NH2
modifications: bridge (positions not given here) via ReOCl3(PPh3)2; also: oxorhenium(V) N3S1 tetradentate complex at Cys 10
B8: metallopeptide 6-10 (peptide)
peptide: [pGlu]QRLGCNQWAVGHL[Nle]-NH2
modifications: also: oxorhenium(V) N3S1 chelate at Cys6
B9: metallopeptide 8-3 (peptide)
peptide: [dF]QWAVGHCLL-NH2
modifications: bridge (positions not given here) via ReOCl3(PPh3)2; also: oxorhenium(V) N3S1 tetradentate complex at Cys 8
B10: metallopeptide 9-3 (peptide)
peptide: [dF]QWAVGCLL-NH2
modifications: not fully specified (bridges); printed as D-Phe-Gln-Trp-Ala-Val-Gly-Cys-Leu-Leu-NH2; also: Re(V)=O chelate (N3S1) at Cys7
B11: metallopeptide 6-2 (peptide)
peptide: XQRLGNQWAVGHLCX
modifications: Pyr 1; Nle 15; C-terminal amide; Re complexed at Cys 14
B12: metallopeptide 10-1 (peptide)
peptide: [dF]QWAVC[dH]LL-NH2
modifications: bridge (positions not given here) via ReOCl3(PPh3)2; also: oxorhenium(V) N3S1 tetradentate complex at Cys 6
B13: metallopeptide 6-6 (peptide)
peptide: [pGlu]QRLGNQWACVGHL[Nle]-NH2
modifications: also: Re(V)=O N3S1 chelate at Cys10 (from ReOCl3(PPh3)2)
B14: metallopeptide 7-11 (peptide)
peptide: XQRCGNQWAVGHLX
modifications: Pyr 1; Nle 14; C-terminal amide; Re complexed at Cys 4
B15: metallopeptide 6-7 (peptide)
peptide: [pGlu]QRLGNQWCAVGHL[Nle]-NH2
modifications: also: Re(V)=O N3S1 chelate at Cys9 (from ReOCl3(PPh3)2)
B16: metallopeptide 9-2 (peptide)
peptide: [dF]QWAVGHCL-NH2
modifications: not fully specified (bridges); printed as D-Phe-Gln-Trp-Ala-Val-Gly-His-Cys-Leu-NH2; also: Re(V)=O chelate (N3S1) at Cys8
B17: metallopeptide 6-1 (peptide)
peptide: [pGlu]QRLGNQWAVGHL[Nle]C-NH2
modifications: also: oxorhenium(V) N3S1 chelate at Cys15
B18: metallopeptide 7-9 (peptide)
peptide: XQRLGCQWAVGHLX
modifications: Pyr 1; Nle 14; C-terminal amide; Re complexed at Cys 6
B19: bombesin analog parent polypeptide D-Phe-Gln-Trp-Ala-Val-Gly-His-Leu-Leu-NH2 (peptide)
peptide: [dF]QWAVGHLL-NH2
modifications: N-terminus assumed
SMILES: CC(C)C[C@H](NC(=O)[C@H](CC(C)C)NC(=O)[C@H](Cc1c[nH]cn1)NC(=O)CNC(=O)[C@@H](NC(=O)[C@H](C)NC(=O)[C@H](Cc1c[nH]c2ccccc12)NC(=O)[C@H](CCC(N)=O)NC(=O)[C@H](N)Cc1ccccc1)C(C)C)C(N)=O
B20: metallopeptide 7-3 (peptide)
peptide: XQRLGNQWAVGCLX
modifications: Pyr 1; Nle 14; C-terminal amide; Re complexed at Cys 12
B21: metallopeptide 8-2 (peptide)
peptide: [dF]QWAVGHLCL-NH2
modifications: bridge (positions not given here) via ReOCl3(PPh3)2; also: oxorhenium(V) N3S1 tetradentate complex at Cys 9
B22: metallopeptide 8-6 (peptide)
peptide: [dF]QWACVGHLL-NH2
modifications: not fully specified (bridges); printed as D-Phe-Gln-Trp-Ala-Cys-Val-Gly-His-Leu-Leu-NH2; also: oxorhenium(V) N3S1 tetradentate complex at Cys 5
B23: metallopeptide 7-4 (peptide)
peptide: XQRLGNQWAVCHLX
modifications: Pyr 1; Nle 14; C-terminal amide; Re complexed at Cys 11
B24: metallopeptide 9-6 (peptide)
peptide: [dF]QWCVGHLL-NH2
modifications: not fully specified (bridges); printed as D-Phe-Gln-Trp-Cys-Val-Gly-His-Leu-Leu-NH2; also: Re(V)=O complexed at Cys (N3S1 chelate)
B25: metallopeptide 6-12 (peptide)
peptide: [pGlu]QRCLGNQWAVGHL[Nle]-NH2
modifications: also: Re(V)=O N3S1 chelate at Cys4 (from ReOCl3(PPh3)2)
B26: metallopeptide 9-1 (peptide)
peptide: [dF]QWAVGHLC-NH2
modifications: not fully specified (bridges); also: Re(V)=O chelate (N3S1) at Cys9
B27: metallopeptide 9-4 (peptide)
peptide: [dF]QWAVCHLL-NH2
modifications: not fully specified (bridges); printed as D-Phe-Gln-Trp-Ala-Val-Cys-His-Leu-Leu-NH2; also: Re(V)=O complexed at Cys (N3S1 chelate)
B28: metallopeptide 8-5 (peptide)
peptide: [dF]QWAVCGHLL-NH2
modifications: bridge (positions not given here) via ReOCl3(PPh3)2; also: oxorhenium(V) N3S1 tetradentate complex at Cys 6
B29: metallopeptide 6-4 (peptide)
peptide: [pGlu]QRLGNQWAVGCHL[Nle]-NH2
modifications: also: Re(V)=O N3S1 chelate at Cys12 (from ReOCl3(PPh3)2)
B30: metallopeptide 6-5 (peptide)
peptide: [pGlu]QRLGNQWAVCGHL[Nle]-NH2
modifications: also: Re(V)=O N3S1 chelate at Cys11 (from ReOCl3(PPh3)2)
B31: metallopeptide 8-7 (peptide)
peptide: [dF]QWCAVGHLL-NH2
modifications: not fully specified (bridges); printed as D-Phe-Gln-Trp-Cys-Ala-Val-Gly-His-Leu-Leu-NH2; also: oxorhenium(V) N3S1 tetradentate complex at Cys 4
B32: metallopeptide 7-8 (peptide)
peptide: XQRLGNCWAVGHLX
modifications: Pyr 1; Nle 14; C-terminal amide; Re complexed at Cys 7
B33: metallopeptide 7-1 (peptide)
peptide: XQRLGNQWAVGHLC
modifications: Pyr 1; C-terminal amide; Re complexed at Cys 14
B34: bombesin parent polypeptide Pyr-Gln-Arg-Leu-Gly-Asn-Gln-Trp-Ala-Val-Gly-His-Leu-Met-NH2 (peptide)
peptide: XQRLGNQWAVGHLM
modifications: not fully specified; pyroglutamic acid (Pyr) 1; C-terminal amide
B35: metallopeptide 7-7 (peptide)
peptide: XQRLGNQCAVGHLX
modifications: Pyr 1; Nle 14; C-terminal amide; Re complexed at Cys 8
B36: metallopeptide 7-2 (peptide)
peptide: XQRLGNQWAVGHCX
modifications: Pyr 1; Nle 14; C-terminal amide; Re complexed at Cys 13
B37: metallopeptide 9-7 (peptide)
peptide: [dF]QCAVGHLL-NH2
modifications: not fully specified (bridges); printed as D-Phe-Gln-Cys-Ala-Val-Gly-His-Leu-Leu-NH2; also: Re(V)=O complexed at Cys (N3S1 chelate)
B38: metallopeptide 8-8 (peptide)
peptide: [dF]QCWAVGHLL-NH2
modifications: not fully specified (bridges); printed as D-Phe-Gln-Cys-Trp-Ala-Val-Gly-His-Leu-Leu-NH2; also: Re(V)=O chelate (N3S1) at Cys3
B39: metallopeptide 8-4 (peptide)
peptide: [dF]QWAVGCHLL-NH2
modifications: bridge (positions not given here) via ReOCl3(PPh3)2; also: oxorhenium(V) N3S1 tetradentate complex at Cys 7
B40: metallopeptide 6-8 (peptide)
peptide: [pGlu]QRLGNQCWAVGHL[Nle]-NH2
modifications: also: Re(V)=O N3S1 chelate at Cys8 (from ReOCl3(PPh3)2)
B41: metallopeptide 7-5 (peptide)
peptide: XQRLGNQWACGHLX
modifications: Pyr 1; Nle 14; C-terminal amide; Re complexed at Cys 10

Target: bombesin receptor of rat brain membranes (rat)
Test: 125I-Bombesin competition, rat brain membranes

Binder | % Inhibition [%]
B1 | 17
B2 | 91
B3 | 96
B4 | 71
B5 | 91
B6 | 99
B7 | 39
B8 | 93
B9 | 49
B10 | 70
B11 | 91
B12 | 10
B13 | 83
B14 | 95
B15 | 62
B16 | 35
B17 | 82
B18 | 93
B19 | 92
B20 | 82
B21 | 75

Binder | % Inhibition [%]
B22 | 35
B23 | 81
B24 | 43
B25 | 97
B26 | 86
B27 | 75
B28 | 70
B29 | 70
B30 | 67
B31 | 8
B32 | 84
B33 | 73
B34 | 106
B35 | -2
B36 | 66
B37 | 19
B38 | 62
B39 | 59
B40 | 75
B41 | 61

Reference: patent US20050282739A1
